Assay results reported in the DeepSol protein solubility set.

Assay: soluble on expression in E. coli; label from the status in PepcDB or PDB records

Row | Sequence | soluble on expression in E. coli
1 | PKPPIDLVVTETTATSVTLTWDSGNSEPVTYYGIQYRAAGTEGPFQEVDGVATTRYSIGGLSPFSEYAFRVLAVNSIGRGPPSEAVRARTGEQ | soluble
2 | MNSITVDFLNDQVFQGPMDGTEDKKDGNPKKSTCEKHWAVIDQHNVAICVQLCSFVEGEEKKCAEYYSDKVGGVLKFGRYSLKTIDVKTDLKEFTDKKGFTLYTVEITNSKKKDAPKKTVDILYFSGWPDHGAPQEAYPALEMLKFCESYKKNVLVHCSAGVGRTGTLVAIKYGIELCLKKKVI | not soluble
3 | MGSDKIHHHHHHMIDSSLVLDAETIRNFVKSVNDADSMDKVRAAVSSFAEELRSKSSENGISIREDVLKSILQRIASSHTTELARHYANEVYNMAFISRKLPYSDIDLSRWREYDFVITDSLWLFDKRDYRGSKLGWYWGNFVPQIPRQLILRFSRKDEWVLDPFSGSGTTLIEAKKLGRNSLGIEINEEVCKKSLEILNSIDGDGFSTAISGDSASVNLTKVMEYYGIPEFNLVIMHPPYHDIIKFTDIGGDLSNARDTKEFLSMLGKVTRNVSKYLQKGRFLALVIGDKYSNGEWIPLGFYSMQKVMDQGFRLKSTIVKNFEYTRGKASSSDLWRYRALAGGFYVFKHEYIFVFQKT | not soluble
4 | MKLRRSMLFVPGSNAAMLSNSFIYKPDSIMFDLEDAVALKEKDSARLLVAHALQHPLYKEIETVVRVNPLDSEFGLLDLNSVVRAGVDVVRMPKTESAQDVLDMDHAITEIEKACGREAGSTKMLAAIESPLGITQANQIAFASKRLIGIALGAEDYVRNLKTERSPEGIELLFARCSILQAARAAGIQAFDTVYSNANNEEGFLKEAALIKQLGFDGKSLINPRQIELLHNLFAPTQKDVEQAKRIIEAAVEAERQGAGVVSLNGKMIDAPIIDRAKLVLERAKSGIREELEHHHHHH | soluble
5 | MGSDKIHHHHHHDKAYTDAESYTKGLHKIYSVWALSGQDGSSSSDISGLDAGNTALLRCWWTLQEQPTDEMKNAWNDAWCTEVNYMTWTTNKVEPIEGVYQRCMYIVALVNEFLKNIPNAPESIDKESYIAQARFNRAFAYYVLMDMFALPPFITEKNYSIEPAPLSREDLFNWIEAELNEIKPNLPSPRSEYGVADQAVASALLARMYLNAEIYTGKARYTECINACNEVIKAGYQLADNYADLFKADNGENPDTKKEIIYPIIFDGDKTQSWGMAAIIIGARGAEDKDVLLAHSGVDQGWAGFRATSNLVHLFDFQNDEEPKASEIQDKRGIFYDKGRSIDITSSVSGTFETEGWSVFKFSNLNSNGQPGKNTLWVDTDFPMFRLGDIYLMYAEAVARGGEGSKASAVEYINALRKRAYGDDKHNISENWLEENNFRNLLDERGRELYWEGIRRTDLVRFDLLTSGSYTWDFKGGINTGVGVNKRYNVYPIPVTDLTVNGNLQQNEGY | not soluble
6 | SLGRTRRKNKPITIKSYVVSSDTWQLGCIEYGSHSMSGQRAYNEDRVCVVPSVDVCTREGCCKAHTKAMFYAVYDGHNGEEAVNYVQEHLHKNIFRSRSFHGDVSKAIRAGFIATDNALRSMVMEKIRGEGFEDQDISPFSSGTTACTAVVRDMQLYIGNLGDSRCVLSRAGRSHLITVDHSCRTNADEQQRVREDGGHYDTDGYLNGAIGVSRAFGAFDKNCGQKLSGLTCEPQIHKETLRREDEFMIIACDGVFDVISCQEAVNCPPERLQHKDKRPADWTPTTPGLGEEKAATAEARPSSSSRSPLAATQSGASAGDRTGVSG | not soluble
7 | MAHHHHHHMQFGPVVSEAEIRTVQDGIANGVRSDGRSLTQRRPFTVVTNRGSTTHFEGSSVEVHCDGTTVVAAATPSVVELDIDRGQAPRGSLFVNIDAVPAVVEHYAQSVRNNSARYRQAFLSFLATAIRQTFGAQGVTAEERQQQLGIAEAEIIADEGDDEQREDAFGGRGAAEEKPVEETAEQRVDCCGFPGEQLYIGGGYAFRIDVDAHVLQAHGGSLASIVALAVHAALKTVRLPSVTLHEASAGFSLEVNYSKPYATAVNWSRLPVLSVVHVSPTRHYVVDPTRLEELALPQQLRVAVNSFGQVFHMRFQQLPSRRGNAMRLIRSPREEAGKDNSNDNSERDVDGDDVDDSSRRGFDAGVKGTVGGMNMPDMAAVLHAAVHISQAVIAECDEALAGSSG | not soluble
8 | MSLEEQLYKRDPVSGAILVPMTVNDQPIEKNGDKMPLKFKLGPLSYQNMAFITAKDKYKLYPVRIPRLDTSKEFSAYVSGLFEIYRDLGDDRVFNVPTIGVVNSNFAKEHNATVNLAMEAILNELEVFIGRVKDQDGRVNRFYELEESLTVLNCLRTMYFILDGQDVEENRSEFIESLLNWINRSDGEPDEEYIEQVFSVKDSTAGKKVFETQYFWKLLNQLVLRGLLSQAIGCIERSDLLPYLSDTCAVSFDAVSDSIELLKQYPKDSSSTFREWKNLVLKLSQAFGSSATDISGELRDYIEDFLLVIGGNQRKILQYSRTWYESFCGFLLYYIPSLELSAEYLQMSLEANVVDITNDWEQPCVDIISGKIHSILPVMESLDSCTAAFTAMICEAKGLIENIFEGEKNSDDYSNEDNEMLEDLFSYRNGMASYMLNSFAFELCSLGDKELWPVAIGLIALSATGTRSAKKMVIAELLPHYPFVTNDDIEWMLSICVEWRLPEIAKEIYTTLGNQMLSAHNIIESIANFSRAGKYELVKSYSWLLFEASCMEGQKLDDPVLNAIVSKNSPAEDDVIIPQDILDCVVTNSMRQTLAPYAVLSQFYELRDREDWGQALRLLLLLIEFPYLPKHYLVLLVAKFLYPIFLLDDKKLMDEDSVATVIEVIETKWDDADEKSSNLYETIIEADKSEGHHHHHH | not soluble
9 | MTRFLEKRHKKKKATNKERILSYKPIHAIEQENSFRSSRCSNQTVEVSAVEDSRSALVGFFESNEPSESVTLKGKRERQVRFADKTNTVGLLKESLEEKLLASKTLISQLKEENCRLKERLNEVKDQLELKEKIALVQQENNDLEAEVLEWKAKFYESESEKERILASRSRPKDGYEIVQESLAQQPGTTSFYDYKFRQLVHKLTRMNAIHSKHNDKEYHKCDIVNESKDRSITFELFIDEEQEEIEYVPVQLNGVSQKLPSYLQDNISFDVQNAPIFFTKIMHSLFSK | soluble
10 | MSLETKTPNDAKNQVQTHERMKTSSEHVTPLDFNYPIHIVQAPQNHHVVGILTPRIQVSDNLKPYIDKFQDALINQIQTIFEKRGYQVLRFQDEKALNAQDKRKIFSVLDLKGWVGILEDLKMNLKDPNNPNLDTLVDQSSGSVWFNFYEPESNRVVHDFAVEVGTFQAMTYTYKHNNSGGLNSSNSIIHEYLEKNKEDAIHKILNRMYAVVMKKAVTELTKENIDKYREAIDRMKGFKSSMPQKKEGHHHHHH | soluble
11 | VRRLLIVHHTPSPHMQEMFEAVVSGATDPEIEGVEVVRRPALTVSPIEMLEADGYLLGTPANLGYISGALKHAFDVCYYLCLDTTRGRSFGAYIHGNEGTEGAERAVDAITTGLGWVQAAETVVVMGKPSKADIEACWNLGATVAAQLMG | soluble
12 | MIFRRSRPGTIGAVTLLCASLLAMPASSACTRFVYHGANDEVITARSMDWKVDVGTNLWAFPRGMQRSGQAGPNSIQWTSKHGSVIASGYDISTTDGMNEAGLVANVLWLAESSYPEYDGKTPGLTLAAWAQYVLDNFASVREAVDTLASEPFTVVTDNVPGEQRPATLHLSLSDASGDSAIIEYIDGKQVIHHNRAYQVMTNSPTFDKQLALNEYWKQIGGTVMLPGTNRASDRYARAYFYVNAIPKSEDPVEAIASVFSVIRNVSVPYGITTPDQPNISSTRWRTVADHKRKRYFFESALTPNIFWIDLGALDFSAESGKVMKLDLGPDQAHIYSGQANAHFEQAAPFKFLGL | not soluble
13 | MIPEQRREQILRQLRKHQVLSVHQLMEMFDCSHMTVRRDIALLEQEGRAHSVTGGVRIASQLHSEPSHQSKAVVELPQKQAMAKLAASLLHADMTVYLDAGTSTLEIVHYIKALSGMTVVTNDFGVAQALMDAPQVTVIHTGGQLDHSNHSCVGGLAVATLRQVVTDVAFISTSSWDLRRGITTPSALKVEVKQVAMQSATQVVLVASSSKYGTFSMYKIAGLEQFDIIISDAALAPAAADGIRKHGVELLLPAQSLEHHHHHH | not soluble
14 | MGSDKIHHHHHHMSWHNKVVWNEGLFLLPQLFQQQERYFEYFAHKRAAVLSPFFWGFSRYEIDQESLSFGKLVFKSGAGIFPDGTPFDVPGHTPPPPPLTIAAEHQDQVIYLAVPLRLPNTEETAFDEQAGSLARYSAFEIELRDSNAIGQGPKPVQLANMRLRLLPEKELTQSWIGIALTRVKTLHADGSVALYDGDHIPPVSQYGANPLLREWATQLHGLAKLRADALATRLSGSDGRAGAAAEVADYLLLQVLNRYEPLLEHICRIREMPPVTLYRELSMLAGELSTFVRPQTRRPRPTPGYDHAQLYASIRPLVDEVHYLLNQVLIRGAQPIPLTEQPHGIRVATMLPSELAGYSSLVLAVGAQMSPDVLQQQFASQTKISHPQRLPELIRSHLPGMTMIPLPVPPRQIPFNSSYIYYELSRTGPFWEQIAQQGGLAMHIAGHFPELKLELWGVRHK | not soluble
15 | MGSDKIHHHHHHVPGLLPDVDREGLLEYSVVYTDRSLNHMSQLFQGVMRDISNSLKKVYNAKSAVVVPGSGTFGMEAVARQFATNRKCLVIRNGWFSYRWTQIFDMGGIPSESIVLKARPVEEGRQAAYAPPPIEEVVAAIRENKPDLVFAPHVETASGIMLPDAYLRAVADAVHAVDGMFVLDCIASGTVWVDMKASGVDVLISAPQKGWSASPCCGLVMLGELARERIEGTTSTSFACDLRKWLQIMEAYENGGFAYHATMPTDGLATLRDVMKETEAYGFDKVRAEQVELGRRVRSVLADRGFRSVAAEGFEAPGVVVSYTDDDGIRSGKKFADAGLQIAAGVPLQCDEPQDFKTFRIGLFGLDKLHDVEGAVGRFVKGLGSIL | not soluble
16 | MAGKCVFIVGAKRTAFGTFGGKLKGLSATDLGVVASQAALKHANVGADAVDHVIFGNVVASSRDGIYLSRHIGLKSGVPQNVGALTVNRLCGSGFQAVVNAAQAIKLGESNIVLAGGTENMSMVPFAVRDIRFGTALGKKYEFEDMLWDSLSDPYAKLAMGQTAEKLGAQYKVTRQEADEFALRSQTLWKKAQEAGVYKNEIVGITIKGRKGEESFEIDEHPRATTAESLAKLKPVFQKDGLVNAGNASGISDGAAALVVAGEDSVKSKNLKPLARVVAYSAVGCDPTIMGIGPAPAIREVLKKSGLKIGDIDIFEVNEAFAPQALAVQRELGIPMEKLNVNGGAIALGHPLAASGARISTHIVHELHRRNVKYGIGSACIGGGQGIAILFEKIEMKVLSKKKFFSEKNQKSANTSTQSRVSDANSPPPPPPHFTRSFLGL | soluble
17 | ELHAELVKRQHLETFLKTQIESELVDVYFQPIIETRTGNVVKFEALARFYHENSEYSTQEMISIIEDLELIAALDDVVCQTALKQWSHLQKIYGENIGLSINRSLNTKLDSLQVLQRSLDLIKASDVNPKLVTIELTETAYFEQDEEHAFALEQIRQEGIQIAIDDFGTGYSSFSYLEEGQFDVLKIDRKFVKNIHEGSTSYNIVKTITDLAHKLNVEVVAEGVESQRELEVLAGIGVDYMQGFLFSQA | not soluble
18 | MSLNWEHLLSLKRQGDTAKRLRIEQDDTRLGFEVDYDRIIFSAPFRSLQDKTQVIPLSKTDFVHTRLTHSLEVSVVGRSLGRMVGKKLLEKYPHLEQVYGYKFNDFGAIVAAAALAHDIGNPPFGHSGEKAIGEFFKNGYGKRYKDSLTAKEYQDLIKFEGNANGFKVLSQSKPGAQGGLRLSYATLGAFMKYPKESLPHKPSDHIADKKYGFFQSERALFEDVAQELGLLKRSTTDDVSWSRHPLAYLVEAADDICYTIIDFEDGINLGLIPEEYALEYMVKLVGQTIDRNKYNALQETSDRVSYLRALAIGTLINESVDTFMKYEEEILAGTFDQSLIDKSNYQAQITDIINLSIERIYNSREVIEKEIAGYEILSTLLEARCRALDNNDTHYNQLIQQLLAPNDHSEKSLYENLIQICAEVSTMTDGKALRNYKKIKGLDEGHHHHHH | soluble
